We go through one substance from publication PMC4131848.

The assay addresses putative N-acetyltransferase from S. aureus subsp. aureus Mu50 (SaGNAT) (Staphylococcus aureus subsp. aureus Mu50). Kind of assay: SEC; Superdex 200, 50 mM Tris pH 8.0, 125 mM NaCl; elution compared with theoretical elution volumes for monomer, dimer and trimer. Background: SEC sorts molecules by how far they enter the pores of the column.

By stoichiometry N is commonly meant a count of units in the complex or per binding partner. “putative N-acetyltransferase from S. aureus subsp. aureus Mu50 (SaGNAT) (enzyme)” came in with a stoichiometry N of 2.
